In patent publication US20210269521A1 (L AND L BIOPHARMA, published 2021):

Assays:
[1] = target: T1, human TIM-3 extracellular domain-human IgG1 Fc fusion protein (human, UniProt Q8TDQ0 22-199); experiment: ELISA; pH 5.5, 37°C 5 days
T1 construct: Made in house or bought (ACROBiosystems TM3-H5258); also called TIM-3-hFc; not shown: human IgG1 Fc

[2] = target: T2, human PD-1 extracellular domain protein expressed in Example 1 (tag not stated) (human, UniProt Q15116 25-170); experiment: ELISA; pH 5.5, 37°C 5 days
T2 construct: extracellular domain; also called PD-1 protein; not shown: human IgG1 Fc or his tag

[3] = target: T2, human PD-1 extracellular domain protein …; experiment: ELISA; 15 mg/mL in PBS, 37°C 0 day (-80°C)
[4] = target: T1, human TIM-3 extracellular domain-human …; experiment: ELISA; preparation buffer, 37°C 14 days (degraded sample)
[5] = target: T2, human PD-1 extracellular domain protein …; experiment: as above
[6] = target: T1, human TIM-3 extracellular domain-human …; experiment: ELISA; pH 5.5, 37°C 10 days, against 0 day
[7] = target: T2, human PD-1 extracellular domain protein …; experiment: ELISA; pH 5.5, 37°C 10 days, against 0 day
[8] = target: T1, human TIM-3 extracellular domain-human …; experiment: ELISA
Method: Goat-anti-hFc (Jackson, 109-005-008) was diluted to a concentration of 1 μg/ml with PBS buffer (pH 7.4) and added to a 96-well microplate (Corning, CLS3590-100EA) at a volume of 50 μl/well, then incubated in an incubator at 37° C. for 2 hours (Or the antigen TIM-3 was directly used to coat the microplate with a concentration of 0.5 μg/ml, and then the antibody to be tested was directly added). After discarding the liquid, a blocking solution of 5% skimmed milk (skimmed milk powder purchased from Bright) diluted with PBS was added at 200 μl per well, and the microplate was incubated for 2.5 hours at 37° C. or overnight (16-18 hours) at 4° C. for blocking. The blocking solution was discarded, and the microplate was washed 5 times with PBST buffer (PBS with pH 7.4 containing 0.05% tween-20), then 50 μl/well of 0.5 μg/ml TIM-3-hFc (Example 1) was added and incubated for 2 hours in a 37° C. incubator. After incubation, the microplate was washed 6 times with PB ST. 50 μl/well of supernatant (containing testing antibody) or different concentrations of the antibody to be tested was added, and the microplate was incubated at 37° C. for 2 hours and washed 5 times with PBST. 50 μl/well of 1:2500 diluted HRP-labeled secondary antibody (Jackson Immuno Research, 115-035-003) was added to the microplate, incubating at 37° C. for 1 hour. After washing the microplate 5 times with PBST, 50 μl/well TMB chromogenic substrate (KPL, 52-00-03) was added to the microplate, followed by incubating at room temperature for 10-15 min.
The above-mentioned TIM-3 and PD-1 bispecific antibodies of the present invention were optimized and designed using the methods of Example 2 and Example 5, and their affinity for TIM-3 and PD-1 were tested respectively.

[9] = target: T3, human TIM-3 extracellular domain-his tag protein (human, UniProt Q8TDQ0 22-199); experiment: SPR Biacore, antibody captured on Protein A, antigen in flow
T3 construct: Made in house or bought (ACROBiosystems TM3-H5229); also called TIM-3-his; Human Tim3-his; not shown: his tag
Method: (§1) First, Protein A (Thermo Pierce, Cat #21181) was conjugated to the biosensing chip CMS (Cat. #BR-1005-30, GE), and the chip was activated with the newly prepared 50 mM NHS (N-hydroxysuccinimide) and 200 mM EDC [1-ethyl-3-(3-dimethylaminopropyl) carbodiimide hydrochloride], then 10 μg/ml Protein A prepared with 10 mM NaAC (pH 4.0) was injected. […] The flow rate was 30 μl/min, the binding time was 180 seconds and the dissociation time is 300 seconds. Subsequently, the chip was washed for 30s with 10 mM Glycine-HCl (pH 1.5) at 30 μl/min. The data were fitted with a 1:1 Langmuir model using the software of Biacore T200 evaluation version 3.0 (GE), and the affinity value KD was obtained.

[10] = target: T4, Human PD-1-his (human, UniProt Q15116 25-170); experiment: as above
T4 construct: extracellular domain; not shown: his tag
Method: as §1

[11] = target: T1, human TIM-3 extracellular domain-human …; experiment: ELISA; pH 6.0, 37°C 7 days
[12] = target: T2, human PD-1 extracellular domain protein …; experiment: ELISA; pH 6.0, 37°C 7 days
[13] = target: T1, human TIM-3 extracellular domain-human …; experiment: ELISA; pH 5.5, 40°C 0 day (-80°C)
[14] = target: T1, human TIM-3 extracellular domain-human …; experiment: ELISA; pH 5.5, 37°C 7 days
[15] = target: T2, human PD-1 extracellular domain protein …; experiment: ELISA; pH 5.5, 37°C 7 days
[16] = target: T1, human TIM-3 extracellular domain-human …; experiment: ELISA; 37°C 0 day, against 0 day
[17] = target: T2, human PD-1 extracellular domain protein …; experiment: ELISA; 37°C 0 day, against 0 day

B1: bispecific antibody LB141 (bispecific antibody, human IgG4 S228P, kappa)
light: EIVLTQSPATLSLSPGERATLSCRASKGVSTSGYSYLHWYQQKPGQAPRLLIYLASYLESGVPARFSGSGSGTDFTLTISSLEPEDFAVYYCQHSRDLPLTFGGGTKVEIKRTVAAPSVFIFPPSDEQLKSGTASVVCLLNNFYPREAKVQWKVDNALQSGNSQESVTEQDSKDSTYSLSSTLTLSKADYEKHKVYACEVTHQGLSSPVTKSFNRGEC
heavy: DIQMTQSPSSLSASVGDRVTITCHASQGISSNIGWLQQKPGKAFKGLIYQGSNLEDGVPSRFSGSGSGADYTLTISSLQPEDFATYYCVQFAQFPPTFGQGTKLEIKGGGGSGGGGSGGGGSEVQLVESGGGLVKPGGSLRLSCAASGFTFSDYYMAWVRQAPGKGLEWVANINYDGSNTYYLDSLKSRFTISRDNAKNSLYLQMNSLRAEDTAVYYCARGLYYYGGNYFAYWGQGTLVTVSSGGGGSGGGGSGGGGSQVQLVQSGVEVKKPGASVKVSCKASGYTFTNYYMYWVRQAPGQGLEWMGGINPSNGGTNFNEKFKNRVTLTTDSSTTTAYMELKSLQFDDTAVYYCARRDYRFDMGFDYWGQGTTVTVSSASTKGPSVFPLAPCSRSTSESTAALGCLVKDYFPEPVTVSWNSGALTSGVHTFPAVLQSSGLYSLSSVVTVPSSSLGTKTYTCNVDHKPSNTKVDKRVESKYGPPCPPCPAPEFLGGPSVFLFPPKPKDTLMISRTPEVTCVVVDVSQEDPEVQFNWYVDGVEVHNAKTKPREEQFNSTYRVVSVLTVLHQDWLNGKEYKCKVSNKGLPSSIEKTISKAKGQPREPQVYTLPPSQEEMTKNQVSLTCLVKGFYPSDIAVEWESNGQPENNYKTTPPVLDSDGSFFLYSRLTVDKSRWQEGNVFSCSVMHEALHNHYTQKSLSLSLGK
notes: ab6VL-(G4S)3-ab6VH-(G4S)3-PemVH-hIgG4 with PemVL-κ
B1 showed an EC50 [1] of 0.334 nM, an EC50 [2] of 0.217 nM and an EC50 [3] of 0.293 nM. For the same binder, the EC50 [4] was 14.5 nM, the EC50 [5] was 0.446 nM and the “Fold change of EC50” value [6] was 0.85 ratio. The “Fold change of EC50” value [7] was 1.1 ratio, the EC50 [8] was 0.081 nM and the Kd [9] was 5.05 nM. For the same binder, the koff [9] was 0.00393 s⁻¹, the kon [9] was 777000 M⁻¹ s⁻¹ and the Kd [10] was 6.63 nM. For the same binder, the koff [10] was 0.00285 s⁻¹, the kon [10] was 430000 M⁻¹ s⁻¹ and the EC50 [11] was 0.136 nM. The EC50 [12] was 0.116 nM, the EC50 [13] was 0.36 nM and the EC50 [14] was 0.157 nM. For the same binder, the EC50 [15] was 0.128 nM, the “Fold change of EC50” value [16] was 1 ratio and the “Fold change of EC50” value [17] was 1 ratio.
